This data set deals with the molecule itself. Nature of the data set: NMR 15N R2 relaxation.

B1: HIF-1α PAS-B domain single mutant (R245E), construct 947 (domain or fragment)
chain: not shown
In the case of B1, the binding result is recorded as “binds”.

For the origin of these results see paper PMC3376167 (The Journal of Physical Chemistry. B, 2012).
